For test [1], the target named is T1, GRP78 expressed in human cells (cell lysate) (human, UniProt P11021 19-654).
T1 construct: Endogenous GRP78 in lysates of human cell lines (DU145, MRC5 and others) after SDS-PAGE and blotting; also called GRP78 expressed in DU145 cells; GRP78 protein in cell lysates
As to the kind of experiment: western blot of cell lysates of human cell lines with GD-17 antibody (2 µg/ml).

Test [2] deals with T2, GRP78 expressed in mouse cells (Ba/F3, NIH3T3), cell lysate (mouse, UniProt P20029 20-655). As to the kind of experiment: western blot of cell lysates of mouse cell lines with GD-17 antibody (2 µg/ml). (In western blotting, separated proteins are transferred to a membrane and probed.)
In test [3] the target is T3, GRP78 localized on the cell surface of human cancer cells (human, UniProt P11021 19-654).
T3 construct: Endogenous GRP78 on untransfected human cancer cell lines (DU145, 22Rv1, LoVo, LNcap, MCF7 and others); also called GRP78 on the surface of DU145 cells; surface-located GRP78
As to the kind of experiment: FACS on prostate cancer cell lines DU145 and 22Rv1, hybridoma culture supernatant.

The target in test [4] is MBP-GRP78 (376-415) (human, UniProt G3I8R9 376-415 (Cricetulus griseus entry)). As to the kind of experiment: ELISA, plate coated with MBP-GRP78 (376-415) (1 µg/ml), hybridoma culture supernatant.
Test [5] deals with T4, GST fused GRP78 protein (GST-GRP78) purified from E. coli (human, UniProt P11021 19-654).
T4 construct: also called GRP78-GST fused protein; not shown: glutathione S-transferase (GST) encoded by the E. coli expression vector pGEX-6P-1 (Amersham Pharmacia), with the vector
As to the kind of experiment: ELISA, plate coated with GST-GRP78 (1 µg/ml), anti-flag detection; same value told for specimens stored at 4° C., left at 37° C. overnight, or frozen and thawed. Background: ELISA stands for enzyme-linked immunosorbent assay.

The target of test [6] is T3, GRP78 localized on the cell surface of …. As to the kind of experiment: cell-based or functional assay.
Test [7] has the same target. As to the kind of experiment: FACS on DU145 cells, antibody 10 µg/ml.
Test [8] concerns the target T5, GST-GRP78 (376-415) (human, UniProt G3I8R9 376-415 (Cricetulus griseus entry)).
T5 construct: not shown: glutathione S-transferase (GST) encoded by the E. coli expression vector pGEX-6P-1, with the vector's linker
As to the kind of experiment: western blot of GST fused GRP78 fragments (345-385, 376-415, 406-445).

For test [9], the target named is T6, GRP78 protein (amino acids 19-654) purified from E. coli (human, UniProt P11021 19-654).
T6 construct: Cut from the GST fusion with PreScission Protease and gel filtered; also called glucose-regulated protein 78; BiP
As to the kind of experiment: ELISA, plate coated with GRP78 protein purified from E. coli, hybridoma culture supernatant.

Test [10] deals with T2, GRP78 expressed in mouse cells (Ba/F3, …). As to the kind of experiment: western blot of NP40 lysates of Ba/F3 and NIH3T3 cells with GA-20 antibody (2 µg/ml).
Test [11] deals with T4, GST fused GRP78 protein (GST-GRP78) …. As to the kind of experiment: western blot, GST fused GRP78 protein (0.1 ug), antibody 2 µg/ml.
The target in test [12] is GRP78 expressed in hamster ovary cells (DG44), cell lysate (hamster, UniProt G3I8R9 19-654). As to the kind of experiment: western blot of NP40 lysate of DG44 cells with GA-20 antibody (2 µg/ml).
The target in test [13] is T1, GRP78 expressed in human cells (cell …). As to the kind of experiment: western blot, DU145 cell lysate, antibody 2 µg/ml.
Test [14] has as its target T4, GST fused GRP78 protein (GST-GRP78) …. As to the kind of experiment: ELISA, plate coated with GST-GRP78 (1 µg/ml), HisTrap fractions diluted 40-fold, anti-flag detection.

As usually defined, the EC50 is the concentration needed to bring the measured effect to its halfway point. A high value points to lower potency in that assay.

B1: GD-17 antibody (antibody, IgG1, V domains shown)
VH: QVQLQQSGAELARPGASVKLSCKASGYTFTSYWMHWVKQRPGQGLEWIGAIYPGDGDTRYTQKFKGKATLTADKSSSTAYMQLSSLASEDSAVYYCASGITAVADYWGQGTTLTVSS
VL: DVVMTQTPLSLPVSLGDQASISCRSSQSLVHSNGNTYLHWYLQKPGQSPKLLIYKVSNRFSGVPDRFSGSGSGTDFTLKISRVEAEDLGVYFCSQSTHVPLTFGAGTKLELK
notes: Mouse monoclonal from hybridoma, subtype G1 (IgG1)
For the molecule B1, the binding result in test [1], in test [2], in [3] and in test [4] was “binds” in each case.

B2: GD-4 antibody (antibody, IgG1, V domains shown)
VH: EVQLVETGGGLVQPKGSLKLSCAASGFTFNTNAMNWVRQAPGKGLEWVARIRSKSNNYAAYYADSVKDRFTISRDDSQSMLYLQMNNLKTEDTAMYYCVREGYGYSLYFDYWGQGTTLTVSS
VL: DIVMTQSPTFLAVTASKKVTINCTASESLYSSKHKVHYLAWYQKKPDQSPKLLIYGASNRYIGVPDRFTGSGSGTDFTLTISSVQVEDLTHYYCAQFYSYPLTFGAGTKLELK
notes: as for B1
Take B2: the binding result in [3] and in test [4] was “binds” throughout.

B3: toxin-labeled GD17 single-chain antibody (GD17scFv-PE40) (scFv)
scFv: MDHHHHHHHHHHKLQVQLQQSGAELARPGASVKLSCKASGYTFTSYWMHWVKQRPGQGLEWIGAIYPGDGDTRYTQKFKGKATLTADKSSSTAYMQLSSLASEDSAVYYCASGITAVADYWGQGTTLTVSSGGGGSGGGGSGGGGSDVVMTQTPLSLPVSLGDQASISCRSSQSLVHSNGNTYLHWYLQKPGQSPKLLIYKVSNRFSGVPDRFSGSGSGTDFTLKISRVEAEDLGVYFCSQSTHVPLTFGAGTKLELKEFGGAPEFPKPSTPPGSSGLEGGSLAALTAHQACHLPLETFTRHRQPRGWEQLEQCGYPVQRLVALYLAARLSWNQVDQVIRNALASPGSGGDLGEAIREQPEQARLALTLAAAESERFVRQGTGNDEAGAANADVVSLTCPVAAGECAGPADSGDALLERNYPTGAEFLGDGGDVSFSTRGTQNWTVERLLQAHRQLEERGYVFVGYHGTFLEAAQSIVFGGVRARSQDLDAIWRGFYIAGDPALAYGYAQDQEPDARGRIRNGALLRVYVPRSSLPGFYRTSLTLAAPEAAGEVERLIGHPLPLRLDAITGPEEEGGRLETILGWPLAERTVVIPSAIPTDPRNVGGDLDPSSIPDKEQAISALPDYASQPGKPPDYKDDDDKKDEL
notes: also called GA17_scFv-PE40
Take B3: in [5], the EC50 is approximately 1.3 nM. Further, the “cytotoxic activity, EC50 on MCF7 and 22Rv1 cells” value in test [6] was 2 to 4 nM.

B4: GC-18 antibody (antibody, IgG1, V domains shown)
VH: DVRLQESGPGQVKPSQTVSLTCSVTGYSITNGNHWWNWIRQVSGSKLEWIGYISSSGSTDSNPSLKSRISITRDTSKNQLFLQLNSVTTEDIATYYCARGYYFDYWGQGTTLTVSS
VL: DIVLTQSPASLAVSLGQSVTISCRASESVEYYGTSLMQWYQQKPGQPPKLLIYATSNVESGVPARFSGSGSGTDFSLNIHPVEEDDIAMYFCQQSRKLPSTFGGGTKLEIK
notes: as for B1
On to B4, for which the binding result in test [3] and in test [4] was “binds” each time.

B5: GA-20 antibody (antibody, IgM, V domains shown)
VH: EVQLQQSGPELVKPGASVKISCKTSGYTFTEYTMHWVKQSHGKSLEWIGGINPNNGGTSYNQKFKGKATLTVDKSSSTAYMELRSLTSEDSAVYYCAREKYGNYYAMDYWGQGTSVTVSS
VL: DIVMSQSPSSLAVSAGEKVTMSCKSSQSLLNSRTRKNYLAWYQQKPGQSPKLLIYWASTRESGVPDRFTGSGSGTDFTLTISSVQAEDLAVYYCKQSYNLRTFGGGTKLEIK
notes: Mouse monoclonal from hybridoma, subtype M (IgM); light chain cloned with a kappa primer
B5: the binding result in test [7], in test [8], in test [9], in test [10], in test [11] and in [12] was “binds” each time. The binding result in test [13] is “binds”.

B6: toxin-labeled GA-20 single-chain Fv antibody (GA20-PE40) (scFv)
scFv: MDHHHHHHHHHHKLEVQLQQSGPELVKPGASVKISCKTSGYTFTEYTMHWVKQSHGKSLEWIGGINPNNGGTSYNQKFKGKATLTVDKSSSTAYMELRSLTSEDSAVYYCAREKYGNYYAMDYWGQGTSVTVSSGGGGSGGGGSGGGGSDIVMSQSPSSLAVSAGEKVTMSCKSSQSLLNSRTRKNYLAWYQQKPGQSPKLLIYWASTRESGVPDRFTGSGSGTDFTLTISSVQAEDLAVYYCKQSYNLRTFGGGTKLEIKEFGGAPEFPKPSTPPGSSGLEGGSLAALTAHQACHLPLETFTRHRQPRGWEQLEQCGYPVQRLVALYLAARLSWNQVDQVIRNALASPGSGGDLGEAIREQPEQARLALTLAAAESERFVRQGTGNDEAGAANADVVSLTCPVAAGECAGPADSGDALLERNYPTGAEFLGDGGDVSFSTRGTQNWTVERLLQAHRQLEERGYVFVGYHGTFLEAAQSIVFGGVRARSQDLDAIWRGFYIAGDPALAYGYAQDQEPDARGRIRNGALLRVYVPRSSLPGFYRTSLTLAAPEAAGEVERLIGHPLPLRLDAITGPEEEGGRLETILGWPLAERTVVIPSAIPTDPRNVGGDLDPSSIPDKEQAISALPDYASQPGKPPDYKDDDDKKDEL
notes: also called GA20scFv-PE40; toxin-labeled GA-20 scFv antibody
Regarding B6, in test [14], the binding result was “binds”.

The values are drawn from patent publication US20100041074A1 (FORERUNNER PHARMA RESEARCH, published 2010).
